Data from patent US20240350586A1 (TSINGHUA UNIVERSITY, published 2024).

Tests used:
HA-CCT1 = biological target: T1, HA-CCT1 (human, UniProt P17987 1-556); assay: co-IP with T7-LC3C in HEK293T
T1 construct: Amplified from HEK293T cDNA; not shown: N-terminal HA tag
Experimental: (§1) The data are representative of three independent experiments. [0146] […] The data are representative of three independent experiments. [0147] […] The data are representative of three independent experiments. [0148] […] The interaction of the peptides with T7-GABARAP or T7-GABARAPL1 proteins was analyzed by in vitro pull-down. The data are representative of three independent experiments. [0149] […] The data are representative of three independent experiments. [0150] […] [0151] (K) Quantification of Q103-HTT-GFP area/DAPI area (mean±SEM) as shown in [0152] (J). 48 h represents IB accumulation stage and 72 h represents clearance stage. P values are indicated (two-tailed t test, >20 views from three independent experiments). [0153] […] The data are representative of three independent experiments. [0154] […] The data are representative of three independent experiments. [0155] […] The data are representative of three independent experiments.
(§2) Co-immunoprecipitation was performed essentially as described before. In brief, 24 h after transfection, the cells were collected and lysed on ice for 30 min in co-IP buffer (50 mM Tris/HCl pH 7.4, 150 mM NaCl, 1 mM EDTA, 0.5% NP40) with protease inhibitor mixture, and the lysates were cleared by centrifugation. The resulting supernatants were incubated with indicated agarose or magnetic beads and rotated at 4° C. for 3 h. The agarose was washed five times with co-IP buffer.

HA-CCT3 = biological target: T2, HA-CCT3 (human, UniProt P49368 1-545); assay: co-IP with T7-LC3C in HEK293T
T2 construct: Amplified from HEK293T cDNA; not shown: N-terminal HA tag
T2 sequence: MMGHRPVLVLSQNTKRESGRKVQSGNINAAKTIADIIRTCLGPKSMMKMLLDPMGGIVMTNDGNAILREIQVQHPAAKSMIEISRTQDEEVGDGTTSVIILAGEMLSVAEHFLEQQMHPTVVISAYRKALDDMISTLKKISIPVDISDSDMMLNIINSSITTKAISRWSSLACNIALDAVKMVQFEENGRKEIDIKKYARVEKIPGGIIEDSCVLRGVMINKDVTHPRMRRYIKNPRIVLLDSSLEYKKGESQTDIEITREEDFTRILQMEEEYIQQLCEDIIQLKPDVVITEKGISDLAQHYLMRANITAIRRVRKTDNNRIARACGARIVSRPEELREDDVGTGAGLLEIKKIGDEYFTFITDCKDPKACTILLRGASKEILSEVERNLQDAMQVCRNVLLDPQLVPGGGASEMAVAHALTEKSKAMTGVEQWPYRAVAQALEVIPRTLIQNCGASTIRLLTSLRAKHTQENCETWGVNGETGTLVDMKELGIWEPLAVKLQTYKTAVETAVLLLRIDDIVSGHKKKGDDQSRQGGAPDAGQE
Experimental: as §1, §2

HA-CCT6 = biological target: T3, HA-CCT6 (human, UniProt P40227 2-531); assay: co-IP with T7-LC3C in HEK293T
T3 construct: Amplified from HEK293T cDNA; not shown: N-terminal HA tag
T3 sequence (P40227 2-531 limits assumed): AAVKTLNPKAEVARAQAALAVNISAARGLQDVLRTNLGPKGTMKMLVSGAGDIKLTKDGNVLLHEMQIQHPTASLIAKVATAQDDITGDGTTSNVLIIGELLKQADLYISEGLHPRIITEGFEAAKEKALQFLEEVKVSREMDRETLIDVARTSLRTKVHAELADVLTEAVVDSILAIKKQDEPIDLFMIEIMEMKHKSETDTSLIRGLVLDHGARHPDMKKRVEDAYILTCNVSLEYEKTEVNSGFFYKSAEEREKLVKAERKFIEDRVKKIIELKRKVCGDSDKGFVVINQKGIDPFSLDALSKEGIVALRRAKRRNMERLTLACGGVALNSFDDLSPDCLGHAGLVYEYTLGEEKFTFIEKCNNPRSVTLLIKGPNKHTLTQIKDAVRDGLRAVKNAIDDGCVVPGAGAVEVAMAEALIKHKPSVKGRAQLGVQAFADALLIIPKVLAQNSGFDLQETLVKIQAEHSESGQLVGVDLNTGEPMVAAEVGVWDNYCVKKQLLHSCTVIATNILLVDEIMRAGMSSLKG
Experimental: as §1, §2

HSPA9-HA = biological target: T4, HSPA9-HA (Homo sapiens (Human), UniProt P38646 1-679, limits assumed); assay: co-IP with T7-LC3C in HEK293T
T4 construct: Plasmid pCMV3-HSPA9-HA (SinoBiological HG16926-CY); also called long-form of HSPA9; not shown: C-terminal HA tag
T4 sequence (P38646 whole entry): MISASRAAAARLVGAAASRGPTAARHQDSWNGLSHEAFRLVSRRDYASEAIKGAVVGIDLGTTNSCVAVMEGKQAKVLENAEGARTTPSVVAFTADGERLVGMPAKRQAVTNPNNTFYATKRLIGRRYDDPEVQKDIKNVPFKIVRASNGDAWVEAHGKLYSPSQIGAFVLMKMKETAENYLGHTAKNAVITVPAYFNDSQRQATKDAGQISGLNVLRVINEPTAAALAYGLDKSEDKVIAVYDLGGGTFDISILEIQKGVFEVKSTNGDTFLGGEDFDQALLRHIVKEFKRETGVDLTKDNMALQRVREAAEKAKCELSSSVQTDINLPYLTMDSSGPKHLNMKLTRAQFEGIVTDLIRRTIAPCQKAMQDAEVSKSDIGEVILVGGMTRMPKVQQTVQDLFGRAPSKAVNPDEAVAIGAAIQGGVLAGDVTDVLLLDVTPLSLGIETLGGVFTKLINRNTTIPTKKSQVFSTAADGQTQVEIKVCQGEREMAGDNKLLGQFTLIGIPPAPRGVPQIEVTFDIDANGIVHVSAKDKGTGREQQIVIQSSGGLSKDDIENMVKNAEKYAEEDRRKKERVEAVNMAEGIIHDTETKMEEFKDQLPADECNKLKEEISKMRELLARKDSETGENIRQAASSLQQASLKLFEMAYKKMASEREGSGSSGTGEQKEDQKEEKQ
Experimental: as §1, §2

HSP90AB1-HA = biological target: T5, HSP90AB1-HA (Homo sapiens (Human), UniProt P08238 2-724); assay: co-IP with T7-LC3C in HEK293T
T5 construct: Plasmid pCDNA3-HSP90AB1-HA (addgene 22487); not shown: C-terminal HA tag
T5 sequence (P08238 2-724 limits assumed): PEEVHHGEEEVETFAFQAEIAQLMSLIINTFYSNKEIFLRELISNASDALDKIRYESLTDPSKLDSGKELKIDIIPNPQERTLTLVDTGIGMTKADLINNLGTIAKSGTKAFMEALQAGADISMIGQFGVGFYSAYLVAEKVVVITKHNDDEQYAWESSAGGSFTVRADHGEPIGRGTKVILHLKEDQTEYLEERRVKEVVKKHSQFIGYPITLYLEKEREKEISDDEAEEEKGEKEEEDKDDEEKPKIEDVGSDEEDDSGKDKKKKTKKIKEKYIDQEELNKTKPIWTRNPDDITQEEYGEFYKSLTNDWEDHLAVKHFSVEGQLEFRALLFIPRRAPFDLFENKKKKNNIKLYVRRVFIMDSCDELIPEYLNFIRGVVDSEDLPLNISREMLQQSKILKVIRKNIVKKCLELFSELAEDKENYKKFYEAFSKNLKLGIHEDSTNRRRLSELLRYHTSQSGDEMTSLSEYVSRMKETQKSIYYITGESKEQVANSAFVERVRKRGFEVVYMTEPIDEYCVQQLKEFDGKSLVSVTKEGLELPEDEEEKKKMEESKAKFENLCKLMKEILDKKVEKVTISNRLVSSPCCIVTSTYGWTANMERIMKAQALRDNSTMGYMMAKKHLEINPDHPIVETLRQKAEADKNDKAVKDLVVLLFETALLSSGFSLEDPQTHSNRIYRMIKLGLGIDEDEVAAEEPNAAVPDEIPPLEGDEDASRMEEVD
Experimental: as §1, §2

HA-CCT5 = biological target: T6, HA-CCT5 (human, UniProt P48643 2-541); assay: co-IP with T7-LC3C in HEK293T
T6 construct: not shown: N-terminal HA tag
T6 sequence (P48643 2-541 limits assumed): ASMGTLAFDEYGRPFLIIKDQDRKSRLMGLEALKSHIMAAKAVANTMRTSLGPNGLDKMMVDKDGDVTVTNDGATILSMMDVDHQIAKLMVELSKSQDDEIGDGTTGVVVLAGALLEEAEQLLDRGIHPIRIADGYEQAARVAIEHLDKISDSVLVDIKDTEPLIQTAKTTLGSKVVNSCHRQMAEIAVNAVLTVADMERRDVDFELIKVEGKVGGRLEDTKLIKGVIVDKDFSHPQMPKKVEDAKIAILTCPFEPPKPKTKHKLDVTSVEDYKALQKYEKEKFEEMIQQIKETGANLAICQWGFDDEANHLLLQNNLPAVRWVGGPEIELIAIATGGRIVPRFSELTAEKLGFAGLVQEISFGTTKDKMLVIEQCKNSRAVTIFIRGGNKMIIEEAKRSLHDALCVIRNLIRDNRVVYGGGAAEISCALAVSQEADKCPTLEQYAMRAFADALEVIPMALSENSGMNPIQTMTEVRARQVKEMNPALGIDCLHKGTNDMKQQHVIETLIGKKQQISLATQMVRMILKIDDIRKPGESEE
Experimental: as §1, §2

HA-CCT8 = biological target: T7, HA-CCT8 (human, UniProt P50990 2-548); assay: co-IP with T7-LC3C in HEK293T
T7 construct: not shown: N-terminal HA tag
T7 sequence (looked up): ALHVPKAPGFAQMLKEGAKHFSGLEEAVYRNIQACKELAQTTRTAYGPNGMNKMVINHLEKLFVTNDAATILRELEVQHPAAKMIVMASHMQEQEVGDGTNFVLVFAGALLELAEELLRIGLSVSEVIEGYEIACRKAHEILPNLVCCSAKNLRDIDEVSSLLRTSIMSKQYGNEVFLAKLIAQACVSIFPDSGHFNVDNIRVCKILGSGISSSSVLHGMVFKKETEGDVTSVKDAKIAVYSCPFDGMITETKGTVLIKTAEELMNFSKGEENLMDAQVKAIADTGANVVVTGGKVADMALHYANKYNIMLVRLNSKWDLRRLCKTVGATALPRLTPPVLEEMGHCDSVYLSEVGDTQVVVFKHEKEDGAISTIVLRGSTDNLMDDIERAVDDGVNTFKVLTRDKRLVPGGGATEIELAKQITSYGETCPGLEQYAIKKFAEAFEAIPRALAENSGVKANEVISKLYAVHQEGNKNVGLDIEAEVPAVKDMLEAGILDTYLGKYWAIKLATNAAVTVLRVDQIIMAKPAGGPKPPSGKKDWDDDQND
Experimental: as §1, §2

[1] = biological target: T8, HA-CCT2 (chaperonin subunit CCT2, wild type, N-terminal HA tag) (human, UniProt P78371 2-535); assay: co-IP of HA-CCT2 with T7-LC3C in HEK293T with knockdown of P62, NBR1 and TAX1BP1
T8 construct: Expressed in HEK293T or U2OS from pFUGW-HA-CCT2; CCT genes were amplified from HEK293T cDNA; also called WT CCT2; HA-CCT2 WT; not shown: N-terminal HA tag
T8 sequence: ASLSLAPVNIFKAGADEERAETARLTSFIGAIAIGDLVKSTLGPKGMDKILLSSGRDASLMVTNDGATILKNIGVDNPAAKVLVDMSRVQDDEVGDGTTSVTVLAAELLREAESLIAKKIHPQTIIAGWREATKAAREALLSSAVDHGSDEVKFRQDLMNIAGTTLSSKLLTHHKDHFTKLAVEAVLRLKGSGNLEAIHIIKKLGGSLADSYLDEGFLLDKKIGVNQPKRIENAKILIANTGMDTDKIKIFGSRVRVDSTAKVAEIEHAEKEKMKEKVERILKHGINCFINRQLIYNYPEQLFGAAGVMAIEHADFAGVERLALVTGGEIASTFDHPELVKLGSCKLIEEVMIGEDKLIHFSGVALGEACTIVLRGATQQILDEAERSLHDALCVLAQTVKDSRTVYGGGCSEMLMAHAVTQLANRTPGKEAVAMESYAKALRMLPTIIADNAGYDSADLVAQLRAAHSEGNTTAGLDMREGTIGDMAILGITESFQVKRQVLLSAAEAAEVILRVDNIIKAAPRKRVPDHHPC
Experimental: as §1, §2

T1 sequence (P17987 whole entry): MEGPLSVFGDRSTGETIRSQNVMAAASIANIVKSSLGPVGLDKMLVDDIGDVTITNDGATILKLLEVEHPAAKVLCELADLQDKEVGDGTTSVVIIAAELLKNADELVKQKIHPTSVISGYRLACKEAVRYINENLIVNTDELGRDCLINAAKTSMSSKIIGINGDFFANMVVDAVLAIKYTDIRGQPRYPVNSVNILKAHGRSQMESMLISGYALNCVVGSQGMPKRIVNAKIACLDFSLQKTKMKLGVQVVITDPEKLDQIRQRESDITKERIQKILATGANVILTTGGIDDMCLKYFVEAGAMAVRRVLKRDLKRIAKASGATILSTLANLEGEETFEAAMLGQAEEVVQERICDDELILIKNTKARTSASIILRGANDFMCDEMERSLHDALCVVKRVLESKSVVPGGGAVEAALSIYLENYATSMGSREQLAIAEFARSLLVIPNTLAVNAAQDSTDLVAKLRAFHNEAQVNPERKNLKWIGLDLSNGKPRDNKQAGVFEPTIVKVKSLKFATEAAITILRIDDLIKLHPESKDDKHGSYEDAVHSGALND

binding result (HA-CCT1): binds | binding result (HA-CCT3): binds | binding result (HA-CCT6): binds | binding result (HSPA9-HA): binds | binding result (HSP90AB1-HA): no binding | binding result (HA-CCT5): no binding | binding result (HA-CCT8): no binding | binding result [1]: binds
B1: T7-LC3C (expressed in cells) (other, UniProt Q9BXW4 1-126, looked up)
chain: MPPPQKIPSVRPFKQRKSLAIRQEEVAGIRAKFPNKIPVVVERYPRETFLPPLDKTKFLVPQELTMTQFLSIIRSRMVLRATEAFYLLVNNKSLVSMSATMAEIYRDYKDEDGFVYMTYASQETFG
notes: Expressed from pCDNA3-T7-LC3C; not shown: T7 tag
